Experimental data published in patent US20230242673A1.

Target: LDLR expressed in HepG2 cells (UniProt P01130)
Assay: cell-based or functional assay

Sequence of LDLR expressed in HepG2 cells (P01130 22-860 limits assumed): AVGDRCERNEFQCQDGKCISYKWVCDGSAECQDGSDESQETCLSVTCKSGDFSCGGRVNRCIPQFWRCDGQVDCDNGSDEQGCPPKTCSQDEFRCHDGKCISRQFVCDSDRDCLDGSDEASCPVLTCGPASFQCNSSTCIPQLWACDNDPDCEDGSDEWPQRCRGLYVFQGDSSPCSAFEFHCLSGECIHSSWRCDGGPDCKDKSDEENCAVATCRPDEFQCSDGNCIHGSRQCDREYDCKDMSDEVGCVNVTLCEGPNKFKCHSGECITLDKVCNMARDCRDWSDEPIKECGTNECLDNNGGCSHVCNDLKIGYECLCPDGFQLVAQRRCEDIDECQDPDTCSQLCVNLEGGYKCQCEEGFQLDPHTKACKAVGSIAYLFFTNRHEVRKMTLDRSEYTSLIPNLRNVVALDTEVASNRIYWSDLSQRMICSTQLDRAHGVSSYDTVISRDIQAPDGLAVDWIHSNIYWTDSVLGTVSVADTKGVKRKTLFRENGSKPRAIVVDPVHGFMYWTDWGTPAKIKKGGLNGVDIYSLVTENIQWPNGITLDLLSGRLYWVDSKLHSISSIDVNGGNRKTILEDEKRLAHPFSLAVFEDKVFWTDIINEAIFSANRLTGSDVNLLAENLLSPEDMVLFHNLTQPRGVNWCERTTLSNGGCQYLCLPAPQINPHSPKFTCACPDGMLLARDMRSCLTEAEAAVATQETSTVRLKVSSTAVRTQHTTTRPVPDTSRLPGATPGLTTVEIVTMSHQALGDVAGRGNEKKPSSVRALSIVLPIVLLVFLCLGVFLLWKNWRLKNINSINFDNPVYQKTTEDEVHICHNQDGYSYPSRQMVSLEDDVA

An LDL uptake by HepG2 cells, fluorescence value of LDL BODIPY (485 Ex/535 Em) of 80 was found for “PCSK9 Ag (human PCSK9 protein, Acro Cat No: PC9-H5223) (from UniProt Q8NBP7 31-692)” in this work.
